Reference: the supplement of paper PMC9112550, “Optimization of the antimicrobial peptide Bac7 by deep mutational scanning” (BMC Biology, 2022)

Tested on: Escherichia coli TOP10
Test: shrunken log2 fold change of peptide-encoding DNA abundance (4.5 h post-induction vs induction); higher = less antimicrobial activity (less host growth inhibition)
Details: time post-induction: 4.5 h; library: site-saturation at positions 5, 18, 19, 20
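Also: peptides expressed intracellularly from a pBAD plasmid library in pooled LB shake-flask culture, induced with 0.3% L-arabinose, DNA abundance read by NGS, three biological replicates, DESeq2 with apeglm shrinkage.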

Row | Sequence | shrunken log2 fold change
1 | RRIRRRPPRLPRPRPRPPPAPRP | 1.28
2 | RRIRQRPPRLPRPRPRPCVEPRP | -0.206
3 | RRIRCRPPRLPRPRPRPLISPRP | -0.3
4 | RRIRRRPPRLPRPRPRPENGPRP | 0.401
5 | RRIRHRPPRLPRPRPRPFQWPRP | -0.139
6 | RRIRWRPPRLPRPRPRPYMHPRP | -0.48
7 | RRIRKRPPRLPRPRPRPDEIPRP | 0.0203
8 | RRIRHRPPRLPRPRPRPFRMPRP | -0.625
9 | RRIRARPPRLPRPRPRPWTWPRP | -0.327
10 | RRIRPRPPRLPRPRPRPSYTPRP | -0.868
11 | RRIRCRPPRLPRPRPRPAMPPRP | -0.054
12 | RRIRLRPPRLPRPRPRPYFYPRP | -0.942
13 | RRIRARPPRLPRPRPRPVTKPRP | 0.128
14 | RRIRMRPPRLPRPRPRPACAPRP | 0.837
15 | RRIRYRPPRLPRPRPRPGMFPRP | -0.524
16 | RRIRFRPPRLPRPRPRPSRQPRP | -0.0117
17 | RRIRWRPPRLPRPRPRPHKFPRP | -0.307
18 | RRIRTRPPRLPRPRPRPFEFPRP | -0.508
19 | RRIRARPPRLPRPRPRPICYPRP | -0.0212
20 | RRIRGRPPRLPRPRPRPSECPRP | 0.519
21 | RRIRGRPPRLPRPRPRPIKAPRP | 0.024
22 | RRIRVRPPRLPRPRPRPKAPPRP | 0.592
23 | RRIRMRPPRLPRPRPRPMYCPRP | -0.0254
24 | RRIRRRPPRLPRPRPRPTKKPRP | 0.253
25 | RRIRHRPPRLPRPRPRPSDGPRP | -0.266

Row | Sequence | shrunken log2 fold change
26 | RRIRPRPPRLPRPRPRPVQEPRP | -0.0759
27 | RRIRKRPPRLPRPRPRPTQSPRP | 0.441
28 | RRIRLRPPRLPRPRPRPLVPPRP | -0.258
29 | RRIRLRPPRLPRPRPRPNTQPRP | -0.0732
30 | RRIRYRPPRLPRPRPRPMNAPRP | -0.00745
31 | RRIRGRPPRLPRPRPRPHNMPRP | -0.285
32 | RRIRNRPPRLPRPRPRPDYTPRP | 0.115
33 | RRIRMRPPRLPRPRPRPFMEPRP | -0.096
34 | RRIRWRPPRLPRPRPRPKAAPRP | 0.338
35 | RRIRFRPPRLPRPRPRPWTDPRP | -0.345
36 | RRIRDRPPRLPRPRPRPCACPRP | 0.112
37 | RRIRSRPPRLPRPRPRPFPWPRP | -0.0834
38 | RRIRYRPPRLPRPRPRPSPAPRP | 0.156
39 | RRIRARPPRLPRPRPRPFTSPRP | 0.0705
40 | RRIRGRPPRLPRPRPRPMLEPRP | 0.778
41 | RRIRFRPPRLPRPRPRPTFEPRP | -0.00113
42 | RRIRMRPPRLPRPRPRPHSTPRP | 0.126
43 | RRIRIRPPRLPRPRPRPKRYPRP | -0.118
44 | RRIRMRPPRLPRPRPRPETKPRP | 0.253
45 | RRIRQRPPRLPRPRPRPDFSPRP | 0.0756
46 | RRIRRRPPRLPRPRPRPFAIPRP | 0.102
47 | RRIRTRPPRLPRPRPRPGRAPRP | 0.446
48 | RRIRNRPPRLPRPRPRPDSPPRP | -0.0758
49 | RRIRERPPRLPRPRPRPWLKPRP | -0.24
50 | RRIRGRPPRLPRPRPRPGMNPRP | 0.105

Row | Sequence | shrunken log2 fold change
51 | RRIRGRPPRLPRPRPRPDIIPRP | 0.188
52 | RRIRPRPPRLPRPRPRPPPPPRP | 0.85
53 | RRIRDRPPRLPRPRPRPWGMPRP | -0.165
54 | RRIRPRPPRLPRPRPRPMFRPRP | -0.119
55 | RRIRWRPPRLPRPRPRPDNMPRP | -0.0443
56 | RRIRIRPPRLPRPRPRPTSMPRP | -0.0835
57 | RRIRARPPRLPRPRPRPFNPPRP | -0.432
58 | RRIRARPPRLPRPRPRPNQLPRP | -0.0527
59 | RRIRQRPPRLPRPRPRPNFPPRP | -0.00205
60 | RRIRNRPPRLPRPRPRPLEYPRP | -0.816
61 | RRIRFRPPRLPRPRPRPNCDPRP | -0.144
62 | RRIRMRPPRLPRPRPRPRKLPRP | 0.857
63 | RRIRLRPPRLPRPRPRPEAPPRP | 0.462
64 | RRIRCRPPRLPRPRPRPWGIPRP | -0.59
65 | RRIRKRPPRLPRPRPRPDFDPRP | -0.183
66 | RRIRVRPPRLPRPRPRPHIMPRP | -0.339
67 | RRIRERPPRLPRPRPRPMSGPRP | 0.0249
68 | RRIRKRPPRLPRPRPRPMFWPRP | 0.173
69 | RRIRDRPPRLPRPRPRPFDPPRP | -0.119
70 | RRIRARPPRLPRPRPRPEKFPRP | -0.0388
71 | RRIRYRPPRLPRPRPRPEGFPRP | -0.487
72 | RRIRVRPPRLPRPRPRPMHLPRP | -0.167
73 | RRIRNRPPRLPRPRPRPFRAPRP | -0.00309
74 | RRIRNRPPRLPRPRPRPESEPRP | 0.0333
75 | RRIRNRPPRLPRPRPRPKHQPRP | 0.124

Row | Sequence | shrunken log2 fold change
76 | RRIRPRPPRLPRPRPRPKCFPRP | 0.434
77 | RRIRWRPPRLPRPRPRPWDPPRP | -0.101
78 | RRIRWRPPRLPRPRPRPSPQPRP | 0.266
79 | RRIRVRPPRLPRPRPRPATNPRP | -0.301
80 | RRIRARPPRLPRPRPRPAFTPRP | 0.315
81 | RRIRYRPPRLPRPRPRPYCFPRP | -1
82 | RRIRLRPPRLPRPRPRPGEHPRP | -0.145
83 | RRIRIRPPRLPRPRPRPYKQPRP | -0.101
84 | RRIRARPPRLPRPRPRPFQDPRP | -0.297
85 | RRIRMRPPRLPRPRPRPQQYPRP | -0.017
86 | RRIRPRPPRLPRPRPRPQDLPRP | -0.13
87 | RRIRHRPPRLPRPRPRPNNFPRP | -0.0738
88 | RRIRHRPPRLPRPRPRPEATPRP | 0.0573
89 | RRIRPRPPRLPRPRPRPQVVPRP | -0.00675
90 | RRIRKRPPRLPRPRPRPESFPRP | 0.0651
91 | RRIRQRPPRLPRPRPRPETFPRP | -0.0643
92 | RRIRMRPPRLPRPRPRPWCRPRP | 0.0521
93 | RRIRRRPPRLPRPRPRPWFHPRP | 0.0067
94 | RRIRFRPPRLPRPRPRPTWRPRP | 0.587
95 | RRIRPRPPRLPRPRPRPGLWPRP | 0.341
96 | RRIRQRPPRLPRPRPRPNNWPRP | -0.0942
97 | RRIRHRPPRLPRPRPRPHELPRP | -0.126
98 | RRIRIRPPRLPRPRPRPRRKPRP | 0.0881
99 | RRIRWRPPRLPRPRPRPVGIPRP | -0.198
100 | RRIRQRPPRLPRPRPRPIMWPRP | 0.0394

Row | Sequence | shrunken log2 fold change
101 | RRIRQRPPRLPRPRPRPNFGPRP | -0.0871
102 | RRIRKRPPRLPRPRPRPCDVPRP | 0.0144
103 | RRIRGRPPRLPRPRPRPLWAPRP | 0.681
104 | RRIRGRPPRLPRPRPRPIRIPRP | 0.217
105 | RRIRDRPPRLPRPRPRPDNLPRP | 0.0916
106 | RRIRWRPPRLPRPRPRPNDPPRP | -0.137
107 | RRIRQRPPRLPRPRPRPREEPRP | -0.00407
108 | RRIRFRPPRLPRPRPRPWFIPRP | -0.175
109 | RRIRGRPPRLPRPRPRPNIVPRP | 0.364
110 | RRIRSRPPRLPRPRPRPYGSPRP | -0.0102
111 | RRIRYRPPRLPRPRPRPLSQPRP | 0.0967
112 | RRIRERPPRLPRPRPRPPYLPRP | -0.0371
113 | RRIRFRPPRLPRPRPRPTFRPRP | -0.0216
114 | RRIRIRPPRLPRPRPRPMGTPRP | -0.0384
115 | RRIRMRPPRLPRPRPRPTRCPRP | 0.863
116 | RRIRPRPPRLPRPRPRPSFHPRP | 0.626
117 | RRIRMRPPRLPRPRPRPQHHPRP | -0.0825
118 | RRIRRRPPRLPRPRPRPHPFPRP | 0.116
119 | RRIRFRPPRLPRPRPRPLSCPRP | -0.73
120 | RRIRERPPRLPRPRPRPDAEPRP | 0.36
121 | RRIRWRPPRLPRPRPRPKYIPRP | -0.0755
122 | RRIRARPPRLPRPRPRPKDVPRP | 0.0479
123 | RRIRIRPPRLPRPRPRPKGEPRP | 0.00835
124 | RRIRMRPPRLPRPRPRPPEVPRP | 1.25
125 | RRIRERPPRLPRPRPRPFYIPRP | -0.5
